Test results from patent US20220259289A1 (Janssen / Centocor, published 2022).

What was measured:
[1] = target: T1, recombinant biotinylated CD137 protein (Fc-fusion protein, R&D Systems 838-4B) (human, UniProt Q07011 24-186, biotinylated, sites not stated); assay: ELISA, lysate on biotinylated CD137-Fc
T1 construct: Bought Fc fusion; also called CD137-Fc
Method: (§1) Streptavidin-coated Maxisorp plates (Nunc catalog 436110) were blocked for 1 h in Starting Block T20 (Pierce) and then coated with biotinylated CD137 (using same antigen as in panning) or negative controls (an unrelated Fc-fused recombinant protein and human serum albumin) for 1 h. Plates were rinsed with TBST and diluted lysate was applied to plates for 1 h. Following additional rinses, wells were treated with HRP-conjugated anti-Centyrin antibody (PAB25) for 1 h and then assayed with POD (Roche catalog 11582950001).

[2] = target: unrelated Fc-fused recombinant protein; assay: ELISA, negative control Fc protein
human serum albumin [3] = target: T2, human serum albumin (human, UniProt P02768 25-609); assay: ELISA, negative control HSA
T2 construct: Negative control of the ELISA; also called HSA
Method: as §1
T2 sequence (P02768 25-609 limits assumed): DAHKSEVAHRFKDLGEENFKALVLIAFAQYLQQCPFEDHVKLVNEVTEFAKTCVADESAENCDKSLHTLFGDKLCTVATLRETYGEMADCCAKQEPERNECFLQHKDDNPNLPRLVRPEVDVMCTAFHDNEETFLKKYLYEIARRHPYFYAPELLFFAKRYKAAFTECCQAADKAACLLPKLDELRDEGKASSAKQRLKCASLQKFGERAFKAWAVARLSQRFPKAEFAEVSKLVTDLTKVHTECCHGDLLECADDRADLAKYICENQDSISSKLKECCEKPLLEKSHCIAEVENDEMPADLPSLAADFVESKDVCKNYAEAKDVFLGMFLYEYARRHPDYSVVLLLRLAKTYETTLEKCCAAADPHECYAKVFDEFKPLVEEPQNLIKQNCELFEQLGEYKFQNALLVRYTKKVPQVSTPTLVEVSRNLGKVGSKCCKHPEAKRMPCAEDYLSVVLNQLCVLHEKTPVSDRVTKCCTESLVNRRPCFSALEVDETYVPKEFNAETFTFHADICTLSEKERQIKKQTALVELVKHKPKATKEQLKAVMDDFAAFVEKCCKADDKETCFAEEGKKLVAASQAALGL

human serum albumin [4] = target: T3, human serum albumin (human, UniProt P02768 25-609); assay: ELISA, bacterial lysate on plate-bound antigen, luminescence
T3 construct: Negative control antigen of the screening ELISA; also called HSA
Method: as §1
T3 sequence (P02768 25-609 limits assumed): as above

[5] = target: T4, recombinant biotinylated human CD137 protein (Fc-fusion protein, R&D Systems 838-4B) (human, UniProt Q07011 24-186, biotinylated (site not stated)); assay: as above
T4 construct: Bought Fc fusion; The ELISA used the same antigen as the panning; also called CD137-Fc; biotinylated CD137; not shown: Fc part of the bought fusion protein
Method: as §1

[6] = target: unrelated Fc-fused recombinant protein (negative control); assay: as above

Row | Binder | ELISA CD137 (RLU) [1] [RLU] | ELISA Fc Control (RLU) [2] [RLU] | ELISA HSA (RLU) (human serum albumin [3]) | ELISA HSA (RLU) (human serum albumin [4]) | ELISA CD137-Fc (RLU) [5] [RLU] | ELISA Fc Control (RLU) [6] [RLU]
1 | ISOP193ER9P1F11 (designed binder, not shown: small tags and cut ends) LPAPKNLVVSRVTEDSARLSWTAPDAAFDSFAIQYQEYVAHGEAIVLTVPGSERSYDLTGLKPGTEYHVRISGVKGGGVSWPLSAISTT | 1.12e+07 | 2240 | 400 | – | – | –
2 | ISOP193GR9P1G9 (designed binder, not shown: small tags and cut ends) LPAPKNLVVSRVTEDSARLSWTAPDAAFDSFAIFYHEFANSGEAIDLPVPGSERSYDLTGLKPGTEYDVRIYGVKGGTASIPLDAEFTT | 3.05e+06 | 960 | 480 | – | – | –
3 | ISOP193HR9P1A10 (designed binder, not shown: small tags and cut ends) LPAPKNLVVSRVTEDSARLSWTAPDAAFDSFDIYYLEPWGGGEAIVLTVPGSERSYDLTGLKPGTEYWVTIYGVKVCLGSNPLSAIFTT | 1.27e+07 | 5680 | 1520 | – | – | –
4 | ISOP193HR9P1F8 (designed binder, not shown: small tags and cut ends) LPAPKNLVVSRVTEDSARLSWTAPDAAFDSFDIYYYELRLGGEAIVLTVPGSERSYDLTGLKPGTEYLVTIYGVKVCYYSTPLSAIFTT | 1.61e+07 | 31300 | 6080 | – | – | –
5 | ISOP193HR9P1H10 (designed binder, not shown: small tags and cut ends) LPAPKNLVVSRVTEDSARLSWTAPDAAFDSFDIYYYELRLGGEAIVLTVPGSERSYDLTGLKPGTEYLVTIYGVKVCLGSNPLSAIFTT | 1.48e+07 | 43900 | 10100 | – | – | –
6 | ISOP193HR9P1E8 (designed binder, not shown: small tags and cut ends) LPAPKNLVVSRVTEDSARLSWTAPDAAFDSFDIYYYELRLGGEAIVLTVPGSERSYDLTGLKPGTEYLVTIYGVKGGDYSPPLSAIFTT | 1.63e+07 | 3120 | 1520 | – | – | –
7 | ISOP193HR9P1H7 (designed binder, not shown: small tags and cut ends) LPAPKNLVVSRVTEDSARLSWTAPDAAFDSFEIYYREPHYGGEAIVLTVPGSERSYDLTGLKPGTEYWVTIYGVKVCLGSNPLSAIFTT | 4.6e+06 | 49800 | 13700 | – | – | –
8 | ISOP193HR9P1G4 (designed binder, not shown: small tags and cut ends) LPAPKNLVVSRVTEDSARLSWTAPDAAFDSFEIYYFELRLGGEAIVLTVPGSERSYDLTGLKPGTEYLVTIYGVKGGDYSPPLSAIFTT | 1.72e+07 | 960 | 560 | – | – | –
9 | ISOP193HR9P1G6 (designed binder, not shown: small tags and cut ends) LPAPKNLVVSRVTEDSARLSWTAPDAAFDSFDIYYYELRLGGEAIVLTVPGSERSYDLTGLKPGTEYLVTIYGVKVCEQSYPLSAISTT | 1.15e+07 | 8160 | 1200 | – | – | –
10 | ISOP193HR9P1F10 (designed binder, not shown: small tags and cut ends) LPAPKNLVVSRVTEDSARLSWTAPDAAFDSFDIYYYELRLGGEAIVLTVPGSERSYDLTGLKPGTEYLVTIYGVKGGYYSGPLSAIFTT | 1.58e+07 | 1280 | 960 | – | – | –
11 | ISOP193HR9P1G10 (designed binder, not shown: small tags and cut ends) LPAPKNLVVSRVTEDSARLSWTAPDAAFDSFEIYYFELRLGGEAIVLTVPGSERSYDLTGLKPGTEYLVTIYGVKGGDYSPPLSAISTT | 1.56e+07 | 1360 | 800 | – | – | –
12 | ISOP193HR9P1E3 (designed binder, not shown: small tags and cut ends) LPAPKNLVVSRVTEDSARLSWTAPDAAFDSFEIYYFELRLGGEAIVLTVPGSERSYDLTGLKPGTEYLVTIYGVKGGAYSNPLSAIFTT | 1.78e+07 | 1120 | 640 | – | – | –
13 | ISOP193HR9P1G5 (designed binder, not shown: small tags and cut ends) LPAPKNLVVSRVTEDSARLSWTAPDAAFDSFDIYYYELRLGGEAIVLTVPGSERSYDLTGLKPGTEYLVTIYGVKGCAASDPLSAIFTT | 1.51e+07 | 24200 | 3360 | – | – | –
14 | ISOP193FR9P1E1 (designed binder, not shown: small tags and cut ends) LPAPKNLVVSRVTEDSARLSWTAPDAAFDSFIIRYLEDISYGEAIVLTVPGSERSYDLTGLKPGTEYHVGIEGVKGGNVSWPLSAIFTT | 1.16e+07 | 2000 | 880 | – | – | –
15 | ISOP193ER9P1H3 (designed binder, not shown: small tags and cut ends) LPAPKNLVVSRVTEDSARLSWTAPDAAFDSFEIYYLEVRNRGEAIVLTVPGSERSYDLTGLKPGTEYHVGIAGVKGGFHSFPLSAIFTT | 1.05e+07 | 1520 | 400 | – | – | –
16 | ISOP193GR9P1H2 (designed binder, not shown: small tags and cut ends) LPAPKNLVVSRVTEDSARLSWTAPDAAFDSFEIPYIEVETIGEAIWLHVPGSERSYDLTGLKPGTEYSVGINGVKGGHTSNPLSARFTT | 5.31e+06 | 1360 | 640 | – | – | –
17 | ISOP120GR5P1F5 (designed binder, not shown: small tags and cut ends, FN3 domain (Centyrin); tested as E. coli lysate) LPAPKNLVVSRVTEDSARLSWTAPDAAFDSFEIDYWEVESEGEAIVLFVPGSERSYDLTGLKPGTEYHVHIVGVKGGTPSYPLWADFTT | – | – | – | 400 | 1.28e+06 | 400
18 | ISOP193GR9P1F6 (designed binder, not shown: small tags and cut ends) LPAPKNLVVSRVTEDSARLSWTAPDAAFDSFEIDYWEVESEGEAIVLFVPGSERSYDLTGLKPGTEYHVHIVGVKGGTPSYPLWADFTT | 9.85e+06 | 1360 | 400 | – | – | –
19 | ISOP120GR5P1E7 (designed binder, not shown: small tags and cut ends, FN3 domain (Centyrin); tested as E. coli lysate) LPAPKNLVVSRVTEDSARLSWTAPDAAFDSFEIDYWEVESEGEAIILFVPGSERSYDLTGLKPGTEYHVHIVGVKGGTPSYPLWADFTT | – | – | – | 480 | 1.13e+06 | 400
20 | ISOP193GR9P1F7 (designed binder, not shown: small tags and cut ends) LPAPKNLVVSRVTEDSARLSWTAPDAAFDSFDIPYVEYYPSGEAIVLNVPGSERSYDLTGLKPGTEYGVTIWGIKGGNESVPLTARFTT | 3.48e+06 | 880 | 400 | – | – | –
21 | ISOP120AR5P1D2 (designed binder, not shown: small tags and cut ends, FN3 domain (Centyrin); tested as E. coli lysate) LPAPKNLVVSRVTEDSARLSWDFAYFKFDSFLIQYQESEKVGEAIVLTVPGSERSYDLTGLKPGTEYTVSIYGVGRFYTVYYSNPLSAIFTT | – | – | – | 640 | 908000 | 640
22 | ISOP193GR9P1B3 (designed binder, not shown: small tags and cut ends) LPAPKNLVVSRVTEDSARLSWTAPDAAFDSFAIGYVEWTANGEAIVLIVPGSERSYDLTGLKPGTEYVVRIRGGVKGGDSSFPLRADFTT | 3.46e+06 | 880 | 320 | – | – | –
23 | ISOP193FR9P1D1 (designed binder, not shown: small tags and cut ends) LPAPKNLVVSRVTEDSARLSWTAPDAAFDSFFIQYLEDVTNGEAIVLTVPGSERSYDLTGLKPGTEYRVPIAGVKGGRDSQPLSAIFTT | 8.13e+06 | 1680 | 640 | – | – | –
24 | ISOP120GR5P1H6 (designed binder, not shown: small tags and cut ends, FN3 domain (Centyrin); tested as E. coli lysate) LPAPKNLVVSRVTEDSARLSWTNEQITKYGFDSFLIQYQESEKVGEAIVLTVPGSERSYDLTGLKPGTEYTVSIYGVGRHYTVYDSNPLSAIFTT | – | – | – | 400 | 721000 | 400
25 | ISOP120AR5P1H3 (designed binder, not shown: small tags and cut ends, FN3 domain (Centyrin); tested as E. coli lysate) LPAPKNLVVSRVTEDSARLSWKWISHEPLEFDSFLIQYQESEKVGEAIVLTVPGSERSYDLTGLKPGTEYTVSIYGVGRHYTVYDSNPLSAIFTT | – | – | – | 480 | 769000 | 400
26 | ISOP120AR5P1F11 (designed binder, not shown: small tags and cut ends, FN3 domain (Centyrin); tested as E. coli lysate) LPAPKNLVVSRVTEDSARLSWTNEQITKYGFDSFLIQYQESEKVGEAIVLTVPGSERSYDLTGLKPATEYTVSIYGVGRHYTVYDSNPLSAIFTT | – | – | – | 320 | 715000 | 480
27 | ISOP120AR5P1G7 (designed binder, not shown: small tags and cut ends, FN3 domain (Centyrin); tested as E. coli lysate) LPAPKNLVVSRVTEDSARLSWSQHYLSPIPFDSFLIQYQESEKVGEAIVLTVPGSERSYDLTGLKPGTEYTVSIYGVGRHYTVYDSNPLSAIFTT | – | – | – | 480 | 568000 | 560
28 | ISOP193GR9P1E10 (designed binder, not shown: small tags and cut ends) LPAPKNLVVSRVTEDSARLSWTAPDAAFDSFAISYTESIRQGEAIWLWVPGSERSYDLTGLKPGTEYEVTIGGVKGGIRSYPLWAWFTT | 1.05e+07 | 1360 | 480 | – | – | –
